According to patent US20060183887A1 (Amgen, published 2006):
Blank lines part the entries; values can stand above or below the binder they belong to.

What was measured:
[1] = biological target: T1, soluble EGF-r purified from A431 cell membranes (Sigma, E-3641) (human, UniProt P00533 25-1210, limits assumed); test: in solution by ELISA, Scatchard analysis
T1 construct: The BIAcore methods say that either this protein or the recombinant extracellular domain of EGFr was immobilized; also called purified A431 cell membrane-derived EGFr protein
Method: After incubation, 70 μl of each mixture was transferred into the wells of 96-well microtiter plates previously coated with the same monoclonal antibody (100 μl/well, at 2 μg/ml in coating buffer) and incubated for 15 min at room temperature.

[2] = biological target: T2, human epidermal growth factor receptor (EGF-r) on the surface of human carcinoma cells (A431, SW948, … (human, UniProt P00533 25-1210)); test: inhibition of 125I-EGF binding to A431 cells (FIG. 36)
T2 construct: whole, on cells; also called surface expressed EGF-r

[3] = biological target: T1, soluble EGF-r purified from A431 cell …; test: BIAcore, solid phase, antigen immobilized at 228 RU
Method: Determination of affinity constants of fully human Mabs by BIAcore: Affinity measurement of purified human monoclonal antibodies, Fab fragments, or hybridoma supernatants by plasmon resonance was carried out using the BIAcore 2000 instrument, using general procedures outlined by the manufacturers.
Based upon the general procedures outlined by the manufacture, kinetic analyses of the antibodies were performed using antigens immobilized onto the sensor surface at a low density. […] The dissociation (kd or koff) and association (ka or kₒₙ) rates were determined using the software provided by the manufacturer (BIA evaluation 2.1).

[4] = biological target: T1, soluble EGF-r purified from A431 cell …; test: BIAcore, solid phase, antigen immobilized at 818 RU
[5] = biological target: T2, human epidermal growth factor receptor …; test: inhibition of [125I]EGF binding to SW948 cells
[6] = biological target: T1, soluble EGF-r purified from A431 cell …; test: solid phase (BIAcore) and solution measurements
[7] = biological target: T2, human epidermal growth factor receptor …; test: inhibition of [125I]EGF (0.1 nM) binding to A431 cells
From the text: The plates were washed five times, air-dried and counted in a scintillation counter.

Kd [1]: 0.11 nM
concentration at which inhibition of EGF binding begins [2]: ~8 nM
Kd [3]: 0.16 nM
koff [3]: 0.0003 s⁻¹
kon [3]: 1.9e+06 M⁻¹ s⁻¹
B1: antibody secreted by the hybridoma E2.11 (antibody, human IgG2, V domains shown)
VH: VSGGSVSSGDYYWSWIRQPPGKGLEWIGHLYYSGNTNYNPSLKSRVTISLDTSKNQFSLKLSSVTAADTAVYYCARDFLTGSFFDYWGQGTLVTVSS
VL: TITCQASQDISNYLNWYQQKPGKAPKLLINDASDLETGVPSRISGSGSGTDFTFTISNLQPEDIATYYCQQYDSLPLTFGGGTKVEIRR
notes: Fully human IgG2 with a kappa light chain

Kd [1]: 0.11 nM
concentration at which inhibition of EGF binding begins [2]: ~8 nM
Kd [4]: 0.035 nM
koff [4]: 9.78e-05 s⁻¹
kon [4]: 2.8e+06 M⁻¹ s⁻¹
B2: antibody secreted by the hybridoma E2.4 (antibody, human IgG2, V domains shown)
VH: VSGGSINSGDYYWSWIRQHPGKGLEWIGSIYYSGNTFYNPSLKSRVTISLDTSKNQFSLKLSSVTAADTAVCYCARNIVTTGAFDIWGQGTMVTVSS
VL: TITCQASQDITIYLNWYQQKPGKAPKLLINDASSLETGVPLRFSGSGSGTDFTFTISSLQPEDIATYYCQQYDHLPLTFGGGTKVAIKR
notes: as for B1

IC50 [5]: 0.9 nM
Kd [6]: 0.05 nM
IC50 [7]: 3 nM
B3: antibody secreted by the hybridoma E7.6.3 (antibody, human IgG2, V domains shown)
VH: VSGGSVSSGDYYWTWIRQSPGKGLEWIGHIYYSGNTNYNPSLKSRLTISIDTSKTQFSLKLSSVTAADTAIYYCVRDRVTGAFDIWGQGTMVTSS
VL: TITCQASQDISNYLNWYQQKPGKAPKLLIYDASNLETGVPSRFSGSGSGTDFTFTISSLQPEDIATYFCQHFDHLPLAFGGGTKVEIKR
notes: Fully human IgG2 with a kappa light chain; also called E7.6.3 MAb

Kd [1]: 0.11 nM
concentration at which inhibition of EGF binding begins [2]: ~8 nM
B4: antibody secreted by the hybridoma E1.1 (antibody, human IgG2, V domains shown)
VH: VSGGSINSGDYYWSWIRQHPGKGLDCIGYIYYSGSTYYNPSLKSRVTISVDTSKNQFFLKLTSVTAADTAVYYCARSTVVNPGWFDPWGQGTLVTVSS
VL: TITCQASQDINNYLNWFQQKPGKAPKVLIHDASNLETGGPSRFSGSGSGTDFTFTISGLQPEDIATYYCQQYESLPLTFGGGTKVEIKR
notes: as for B1
